According to the supplement of paper PMC10567573:

B1: C1orf137 (parent)
chain: RQHHHQSSFPGSLPQETNLTLKVC
B2: RIPK4 (parent)
chain: VSVNAQTLDGRTPLHLAAQRGHYR

Variants of: B1
Assay: protein stability index of a GFP-peptide fusion (GPS, HEK-293T) (PSI 1-6); higher = more stable
Details: c terminus: a fixed tail appended
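Note: lentivirally expressed fusions sorted by FACS into six bins by GFP to DsRed ratio, PSI derived from sequencing read proportions per bin multiplied by bin number.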

Protein stability index, by site and new letter:
H3: C 2.54; P 2.77
L13: P 3.42; A 2.72; R 2.97
T20: W 2.18; H 2.48; C 2.8
K22: H 2.75
E16: Y 1.72; P 2.99
H4: S 2.96; N 3.14
S8: L 2.45; T 2.71
Q15: K 2.46; G 2.19; I 2.53
F9: K 4.33; H 3.64
P10: W 1.99; D 2.99
H5: A 3.06; E 3.97
Q6: A 2.61; L 2.49
V23: N 3.34; Y 2.73
C24: M 2.44; P 3.51; Q 3.37
S12: M 2.73; Q 2.55
Q2: N 2.62; G 3.57
R1: I 3.28; Y 2.07; H 3.2
L19: G 3.98; N 3.49; E 4.34
G11: N 3.01
T17: Y 2.09
P14: H 2.37; Y 2.11
N18: W 1.06
L21: A 4; T 4.54

Variants of: B2
Assay: as above
Details: c terminus: a fixed tail appended

Protein stability index of substitutions, site by site:
G21: H 3.26; S 2.66; V 2.93; K 3.33; R 3.47; M 2.68; P 3.49; C 2.44; Y 2.81; D 2.86; I 2.24; E 3.58; L 2.94; N 2.88; A 2.77; Q 3.35; F 2.34; T 2.88; W 2.05
H22: Q 3.56; W 2.23; S 3.29; C 2.98; K 3.89; D 3.23; F 2.96; M 2.96; G 4.53; I 2.83; N 3.48; A 3.3; R 4.29; E 3.27; L 2.69; T 3.57; Y 2.47; V 3.79; P 2.89
L16: C 3.19; K 3.88; I 3.42; E 4.29; N 3.97; Q 3.83; T 3.64; R 3.96; Y 3.45; P 3.73; W 3.09; F 3.11; A 3.82; H 3.28; S 4.04; D 3.8; V 3.5; G 3.45; M 3.34
T12: I 3.1; W 2.82; E 3.58; K 3.72; Q 3.57; C 2.81; A 3.48; H 2.68; S 3.35; Y 2.4; N 2.96; M 3.19; L 2.89; F 2.61; D 3.68; R 3.23; P 3.54; G 3.05; V 3.13
Q19: A 3.44; V 2.28; D 3.12; G 3.53; L 2.52; M 2.88; I 2.59; C 2.97; R 4.04; H 3.27; P 2.67; T 3.58; S 3.08; W 2.12; N 3.41; E 3.18; K 3.95; Y 2.63; F 1.94
R20: W 2.5; A 3.02; P 2.95; M 2.29; N 2.71; Q 3.12; I 2.58; Y 2.41; G 2.96; H 2.53; C 2.69; S 2.65; F 2.14; T 2.85; E 3.43; K 3; V 2.85; D 3.62; L 2.13
Y23: H 3.42; L 3.51; V 4; C 3.43; S 3.83; N 4.17; K 4.12; P 4.11; Q 3.96; G 4.25; D 4.49; W 3.07; E 4.39; I 3.39; R 4.19; A 3.92; M 4.03; T 4.12; F 2.98
H15: Q 4.11; M 2.78; C 3.01; A 3.79; V 3.2; R 3.89; E 3.49; P 3.94; T 3.73; S 3.74; W 2.62; F 2.58; N 3.64; D 3.93; Y 2.56; I 2.79; K 3.24; G 3.08; L 3.24
R24: E 2.87; C 2.2; S 3.01; T 2.99; A 2.81; D 3.3; Y 2.66; Q 2.82; L 2.13; F 2.41; K 3.11; P 3.08; N 2.98; W 2.48; G 3.1; M 2.87; I 2.05; V 2.43; H 2.69
P13: H 2.9; E 3.26; T 2.92; G 2.94; K 2.78; N 3.38; Y 1.93; D 3.56; L 2.25; F 2.34; M 2.42; Q 3.15; A 3.33; V 2.84; I 2.17; C 2.22; S 3.3; W 1.75; R 3.1
A17: R 3.11; Q 3.36; W 2.45; K 3.41; T 3.45; H 3.27; S 3.34; D 3.33; P 3.67; E 3.22; V 3.35; G 3.51; M 3.31; Y 2.54; C 3.15; N 3.38; I 2.45; F 2.26; L 3.02
A18: H 3.13; K 2.58; V 2.97; Q 3.29; C 2.61; F 1.89; N 3.46; I 2.75; W 2.09; T 3.08; M 2.42; Y 2.19; E 3.13; R 3.32; P 3.21; S 3.38; G 3.5; D 3.31; L 2.64
R11: I 2.73; V 2.97; M 2.77; N 3.42; T 2.71; G 2.99; S 3.12; P 3.38; C 2.91; A 3.5; W 2.85; D 3.31; L 2.9; Y 2.98; E 3.78; K 3.51; F 2.65; Q 3.62; H 3.11
L14: I 3.39; Q 3.75; H 3.96; C 1.96; K 3.96; F 3.1; S 3.83; G 3.52; Y 3.21; N 3.92; V 3.4; D 3.62; P 4; A 4.07; R 3.7; E 4.47; T 3.5; M 3.26; W 2.88
D9: Y 2.48
G10: M 3.12; P 3.66; C 3.05; D 3.69; R 3.55; H 3; E 3.59; Q 3.6; V 3.32; A 3.2; I 3.38; N 3.29; Y 2.66; K 3.09; W 2.48; T 3.21; L 2.81; S 3.57; F 2.4
